We go through one substance from patent US20180092961.

Data set [1] deals with murine histone H4 released from activated RAW264.7 macrophages (UniProt P62806).
For data set [2], the target named is calf thymus histone H3 (Roche) (UniProt P68432).
Data set [3] deals with calf thymus histone H4 (Roche) (UniProt P62803).
The next data set has as its target murine histone H3 (UniProt P68433).
For data set [4], the system named is murine histone H2A released from activated RAW264.7 macrophages.

Regarding “human recombinant activated protein C (Xigris)”, in data set [1], the “cleavage, Western blot of conditioned medium” value was “histone H4 was released into the conditioned medium and was cleaved by APC”; the “new protein bands in conditioned medium in the presence of APC, Edman sequencing” value is recorded as “N-terminal sequence of the 10 kD band protein which matches the murine histone H4 internal sequence (Val21-Ile34)”. The “cleavage in a purified system, SDS-PAGE” value in data set [2] was “APC cleaved histone H3 and H4 in a dose dependent fashion”. Also, in data set [3], the “cleavage in a purified system, SDS-PAGE” value was “APC cleaved histone H3 and H4 in a dose dependent fashion”; the “cleavage, SDS-PAGE” value is “Purified histone H4 was also cleaved by APC and a cluster of 4-7 KD fragments could be found on SDS-PAGE”. In the data set with murine histone H3, the “new protein bands in conditioned medium in the presence of APC, Edman sequencing” value is reported as “The N-terminal sequence of the 13 kD band protein was KSAPATGGV (SEQ ID NO:15) which matches the murine histone H3 internal sequence (Lys27-Lys36)”. For the same substance, the “new protein bands in conditioned medium in the presence of APC, MS/MS after tryptic digestion” value in data set [4] was “three peptide sequences ... in this protein band that matchs the murine histone H2A protein sequence (amino acids 21-29, 82-88 and 100-118)”.
